2 proteins from article PMC9851154 can be followed below.

Substrate in data set [1]: CC=Cc1ccc(O)c(OC)c1
In words: purified protein. Type of data set: biochemical, Novosphingobium aromaticivorans. The settings on record: apparent, 0.1 M Tris-HCl pH 9, room temperature.

Substrate in data set [2]: Oc1ccc(/C=C/c2cc(O)cc(O)c2)cc1
In words: purified protein. The data set is classed as biochemical, Novosphingobium aromaticivorans. The following applies: apparent, 0.1 M Tris-HCl pH 9, room temperature.

Positions count from the first letter of the chain named. Names and notes keep the numbering of the source.

B1: NOV1 (Novosphingobium aromaticivorans DSM 12444) (protein)
chain: MAQFPNTPSFTGFNTPSRIEADIADLAHEGTIPQGLNGAFYRVQPDPQFPPRLDDDIAFNGDGMITRFHIHDGQVDFRQRWAKTDKWKLENAAGKALFGAYRNPLTDDEAVKGEIRSTANTNAFVFGGKLWAMKEDSPALVMDPATMETFGFEKFGGKMTGQTFTAHPKVDPKTGNMVAIGYAASGLCTDDVTYMEVSPEGELVREVWFKVPYYCMMHDFGITEDYLVLHIVPSIGSWERLEQGKPHFGFDTTMPVHLGIIPRRDGVRQEDIRWFTRDNCFASHVLNAWQEGTKIHFVTCEAKNNMFPFFPDVHGAPFNGMEAMSHPTDWVVDMASNGEDFAGIVKLSDTAAEFPRIDDRFTGQKTRHGWFLEMDMKRPVELRGGSAGGLLMNCLFHKDFETGREQHWWCGPVSSLQEPCFVPRAKDAPEGDGWIVQVCNRLEEQRSDLLIFDALDIEKGPVATVNIPIRLRFGLHGNWANADEIGLAEKVLAA
A word on the Km: it is the concentration of substrate that gives half-maximal velocity. Broadly, the kcat is the maximal rate divided by the concentration of active sites. By kcat/Km is commonly meant the second-order rate constant that governs catalysis at low substrate concentration. With B1, in data set [1], the Km was 600 ± 100 µM, the kcat was 7.3 ± 0.2 s⁻¹ and the kcat/Km came out at 12200 ± 2000 M⁻¹ s⁻¹. Moreover, in data set [2], the Km worked out at 60 ± 10 µM, the kcat was 0.38 ± 0.02 s⁻¹ and the kcat/Km is 6300 ± 200 M⁻¹ s⁻¹.

B2: NOV1 (Novosphingobium aromaticivorans DSM 12444; S283F) (protein)
chain: B1 chain with S283F
B2: in data set [1], the Km is 800 ± 100 µM, the kcat is 14.5 ± 0.8 s⁻¹ and the kcat/Km was 18100 ± 4000 M⁻¹ s⁻¹. For the same protein, in data set [2], the Km amounted to 227 ± 2 µM, the kcat was found to be 0.078 ± 0.004 s⁻¹ and the kcat/Km turned out to be 340 ± 20 M⁻¹ s⁻¹.
